The test system of data set [1] is ceramide-activated protein kinase. Put plainly: EGFR peptide phosphorylation in a cell-free system (HL-60 nuclei-free supernate). Format: biochemical, human (HL-60 cells). How it is done:
Effect of TNF-α on ceramide-activated protein kinase activity. HL-60 cells were incubated in serum-free medium and homogenized (as in FIG. 9). […] ATP (750 μM, 4000 dpm pmol^-1), and 75 μl of reaction buffer. […] Phosphorylated peptide was first run on a C18 Sep-Pak cartridge, then resolved by C18 reverse-phase HPLC (Waters, Milford, Mass.), with a linear gradient of acetonitrile. The peptide eluted at 30% acetonitrile, as determined by monitoring Cerenkov radiation in 1-ml fractions. Background activity was subtracted from each point. (A) Kinetics of TNF-α (30 nM)-stimulated EGFR peptide phosphorylation. Values (mean) represent data from four experiments. (B) Concentration dependence of EGFR peptide phosphorylation at 5 minutes of stimulation with TNF-α (0.01 to 30 nM). Values (mean) represent data derived from duplicate points in two experiments. The SEM of the values in (A) was 18% and the mean range of values in (B) was 3%.
Effect of phospholipases on ceramide-activated protein kinase activity. Nuclei-free supernates, prepared as in FIG. 9, were first incubated with TNF-α (3 nM) or added directly to reaction mixtures that contained various phospholipases; sphingomyelinase (SMase) (1×10^-3 U ml^-1, S. aureus), phospholipase A2 (PlA2) (3.8×10^-2 and 3.8×10^-1 U ml^-1, Vipera ruselli), phospholipase C (PLC) (3.8×10^-2 U ml^-1, Bacillus cereus) and phospholipase D (PLD) (3.8×10^-2 U ml^-1, Streptomyces chromocuscus). Peptide phosphorylation was measured as in FIG. 10. Control value represents peptide phosphorylation in the absence of phospholipases or TNF-α. Values (mean±SEM) represent data derived from duplicate samples in three experiments. *P<0.001 compared to control.
The effect of TNF-α on ceramide-activated protein kinase activity was assessed. […] For studies assessing the effect of TNFα in broken cell preparations, nuclei-free supernates were incubated under conditions sufficient for stimulation of neutral sphingomyelinase in a reaction mixture that also contained EGFR peptide and γ-^32 P-labeled ATP. Phosphorylated peptide was resolved by high-performance liquid chromatograph (HPLC) and quantified by Cerenkov counting. Kinase activity was calculated from the specific activity of [γ-^32 P] ATP and incorporation of ^32 P into EGFR peptide. Background activity was subtracted from each point. […] TNF-α stimulation of kinase activity was evident by 1 minute and demonstrable for at least 10 minutes. If the initial incubation with TNF-α at 4° C. was omitted and TNF was added directly to the reaction mixture at 22° C., the reaction was delayed. […] TNF-α enhanced kinase activity in a concentration-dependent manner at 5 minutes (FIG. 10B). […] This is similar to the ED50 of 200 pM for stimulation of ceramide-activated protein kinase by TNF-α in intact cells. TNF-α enhanced kinase activity in a total of 20 separate studies.
Control activity reflects several TNF-α-independent protein kinases that are known to phosphorylate EGFR peptide on Thr^669.

For data set [2] the test system is unchanged. To be noted: treatment of intact cells; literature; cited from earlier work.

Consider TNF-α, for which, in data set [1] (5 minutes), the “concentration of maximal effect (kinase activity)” value amounted to 3 nM and the “effective concentration (kinase activity)” value is given as 10 pM. Besides, the “ED50 for kinase activity” value in data set [1] (5 minutes, cell-free) is reported as “≈ 300 pM”. Besides, in data set [1] (TNF-α 30 nM, P<0.001), the “onset of stimulation of kinase activity” value is not above 1 min. In addition, the “enhancement of CAP kinase autophosphorylation / activity” value in data set [2] is reported as 5-10 fold.

Source of the values: patent publication US6040149A, “Assay for identifying agents which act on the ceramide-activated protein kinase, kinase suppressor of ras, and methods of using said agents” (priority 1997, dated 2000).
